# From PMC9334538 (2022)
# Target: WT SARS-CoV-2 RBD (amino acids 321 to 591 of spike) (SARS-CoV-2, UniProt P0DTC2 321-591)
# Experiment: SPR
binder,measurement,value
aRBD-5-Fc (Fc fusion) QVQLVESGGGLVQPGGTLRLSCAASGFTLDYYAIGWFRQAPGKEREGVSCISGSGGITNYTDSVKGRFTISRDNAKNTVYLQMNSLKPEDTAVYYCAPVSHTVVAGCAFEAWTDFGSWGQGTQVTVSS,koff,0.0143 s⁻¹
